Biological target: V1ΔC (S. cerevisiae, UniProt P17255 2-283; P17255 738-1071; P16140 1-517; P32610 1-256; P22203 1-233; P39111 …)
Assay: BLI

Kd: ~0.7 nM
B1: MBP-C (natural protein, S. cerevisiae, UniProt P31412 1-392, looked up)
chain: MATALYTANDFILISLPQNAQPVTAPGSKTDSWFNETLIGGRAFVSDFKIPEFKIGSLDTLIVESEELSKVDNQIGASIGKIIEILQGLNETSTNAYRTLPINNMPVPEYLENFQWQTRKFKLDKSIKDLITLISNESSQLDADVRATYANYNSAKTNLAAAERKKTGDLSVRSLHDIVKPEDFVLNSEHLTTVLVAVPKSLKSDFEKSYETLSKNVVPASASVIAEDAEYVLFNVHLFKKNVQEFTTAAREKKFIPREFNYSEELIDQLKKEHDSAASLEQSLRVQLVRLAKTAYVDVFINWFHIKALRVYVESVLRYGLPPHFNIKIIAVPPKNLSKCKSELIDAFGFLGGNAFMKDKKGKINKQDTSLHQYASLVDTEYEPFVMYIINL

— paper doi:10.1101/391656 (bioRxiv, 2018)
